According to patent publication US20120277180A1, “Cofactors and Methods for Use for Individuals” (VITAPATH GENETICS, INC, priority 2009, published 2012):

Legend:
human MTHFR [1] = target: T1, human MTHFR (Homo sapiens, UniProt P42898, A222V); experiment: In vivo yeast complementation growth assay: MTHFR alleles in fol3 met13 haploid yeast, growth without methionine with titrated folinic acid; assay type: cell-based; parameters: expressed in transfected cells; host or cells: Saccharomyces cerevisiae fol3Δ::KanMX met13Δ::KanMX (S288c background), GAL1 promoter; settings: 50 p g/ml folate supplementation
human MTHFR [2] = target: T1, human MTHFR; experiment: Cell-free MTHFR enzyme activity assay in crude yeast extract; assay type: biochemical; parameters: expressed in transfected cells; settings: cells grown at 50 ug/ml folinic acid

A222V: common functionally impaired human MTHFR variant, catalytic domain substitution A222V
Reduction in growth rate (human MTHFR [1]): 50% | Drop in enzyme activity in cell-free assays (human MTHFR [2]): 50%
